US20120253009A1 (Amgen, published 2012)

T1: human mpl receptor (human, UniProt P40238 26-635)
T1 sequence (looked up): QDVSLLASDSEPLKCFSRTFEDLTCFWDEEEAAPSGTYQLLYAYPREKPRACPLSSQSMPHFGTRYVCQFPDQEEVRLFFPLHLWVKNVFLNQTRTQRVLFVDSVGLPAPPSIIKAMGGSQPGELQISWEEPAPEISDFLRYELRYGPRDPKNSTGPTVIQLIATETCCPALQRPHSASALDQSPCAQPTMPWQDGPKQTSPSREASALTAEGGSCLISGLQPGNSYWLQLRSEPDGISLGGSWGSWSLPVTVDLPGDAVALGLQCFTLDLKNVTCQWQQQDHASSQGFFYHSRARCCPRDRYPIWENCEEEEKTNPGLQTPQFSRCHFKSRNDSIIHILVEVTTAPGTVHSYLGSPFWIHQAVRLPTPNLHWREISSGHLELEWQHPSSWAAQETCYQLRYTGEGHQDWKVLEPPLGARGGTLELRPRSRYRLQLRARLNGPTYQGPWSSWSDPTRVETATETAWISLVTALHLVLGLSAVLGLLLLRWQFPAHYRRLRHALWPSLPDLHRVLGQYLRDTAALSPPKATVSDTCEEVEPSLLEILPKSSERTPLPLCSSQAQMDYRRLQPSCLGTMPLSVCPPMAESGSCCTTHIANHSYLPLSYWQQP


molecular target: T1, human mpl receptor; assay: cell-based or functional assay

Binder | EC50 on 32Dcl23/Mpl [nM]
Fc-Loop (Asym) (SEQ ID NO: 35) (Fc fusion) MDKTHTCPPCPAPELLGGPSVFLFPPKPKDTLMISRTPEVTCVVVDVSHEDPEVKFNWYVDGVEVHNAKTKPREEQYNSTYRVVSVLTVLHQDWLNGKEYKCKVSNKALPAPIEKTISKAKGQPREPQVYTLPPSRDELGGGGQGCSSGGPTLREWQQCRRMQHSGGTKNQVSLTCLVKGFYPSDIAVEWESNGQPENNYKTTPPVLDSDGSFFLYSKLTVDKSRWQQGNVFSCSVMHEALHNHYTQKSLSLSPGK | 0.013
Fc-Loop (Asym) (SEQ ID NO: 5) (Fc fusion) MDKTHTCPPCPAPELLGGPSVFLFPPKPKDTLMISRTPEVTCVVVDVSHEDPEVKFNWYVDGVEVHNAKTKPREEQYNSTYRVVSVLTVLHQDWLNGKEYKCKVSNKALPAPIEKTISKAKGQPREPQVYTLPPSRDELGGGGQGCSSGGPTLREWQQCVRMQHSGGTKNQVSLTCLVKGFYPSDIAVEWESNGQPENNYKTTPPVLDSDGSFFLYSKLTVDKSRWQQGNVFSCSVMHEALHNHYTQKSLSLSPGK | 0.006
Fc-Loop (Sym) (SEQ ID NO: 35) (Fc fusion) MDKTHTCPPCPAPELLGGPSVFLFPPKPKDTLMISRTPEVTCVVVDVSHEDPEVKFNWYVDGVEVHNAKTKPREEQYNSTYRVVSVLTVLHQDWLNGKEYKCKVSNKALPAPIEKTISKAKGQPREPQVYTLPPSRDELGGQGCSSGGPTLREWQQCRRMQHSGGTKNQVSLTCLVKGFYPSDIAVEWESNGQPENNYKTTPPVLDSDGSFFLYSKLTVDKSRWQQGNVFSCSVMHEALHNHYTQKSLSLSPGK | 0.015

More lines, now with the values ahead:

EC50 on 32Dcl23/Mpl [nM] | Binder
0.01 | Fc-Loop (Sym) (SEQ ID NO: 5) (Fc fusion) MDKTHTCPPCPAPELLGGPSVFLFPPKPKDTLMISRTPEVTCVVVDVSHEDPEVKFNWYVDGVEVHNAKTKPREEQYNSTYRVVSVLTVLHQDWLNGKEYKCKVSNKALPAPIEKTISKAKGQPREPQVYTLPPSRDELGGQGCSSGGPTLREWQQCVRMQHSGGTKNQVSLTCLVKGFYPSDIAVEWESNGQPENNYKTTPPVLDSDGSFFLYSKLTVDKSRWQQGNVFSCSVMHEALHNHYTQKSLSLSPGK
0.012 | Fc-Loop (Sym) (SEQ ID NO: 6) (Fc fusion) MDKTHTCPPCPAPELLGGPSVFLFPPKPKDTLMISRTPEVTCVVVDVSHEDPEVKFNWYVDGVEVHNAKTKPREEQYNSTYRVVSVLTVLHQDWLNGKEYKCKVSNKALPAPIEKTISKAKGQPREPQVYTLPPSRDELGGQGCSSGGPTLREWQQCRRAQHSGGTKNQVSLTCLVKGFYPSDIAVEWESNGQPENNYKTTPPVLDSDGSFFLYSKLTVDKSRWQQGNVFSCSVMHEALHNHYTQKSLSLSPGK
